The values that follow come from patent US10287572B2, “Protein scaffolds and methods of use” (REGENTS OF THE UNIVERSITY OF MINNESOTA, priority 2013, dated 2019).

pKd: −log10 of the molar value.

A short description of data set [1]: Circular dichroism thermal denaturation. It counts as physicochemical. The conditions noted are these: ellipticity at 218 nm, 24-98 °C, PBS. How it is done: Purified tGp2 was lyophilized and resuspended in PBS to a concentration of 0.3-0.9 mg mL^−1. Ellipticity was measured from 260 to 200 nm on a Jasco J-815 spectrophotometer (Jasco, Inc., Easton, Md.) in a quartz cuvette with 1 mm path length. Thermal denaturation was carried out by measuring the ellipticity at 218 nm from 24° C. to 98° C. and Tm was calculated from a standard two-state unfolding curve.

A further data set concerns the target T1, EGFR (Homo sapiens, UniProt P00533).
T1 construct: endogenous in cells; host or cells: A431, MDA-MB-231, MCF7
As to the kind of experiment: In vitro cell labeling with tGp2-EGFR-His6, flow cytometry. It counts as cell-based. How it is done: Cells were pelleted, washed with PBSA, and labeled with fluorescein-conjugated rabbit anti-His6 antibody for 15 minutes at 4° C. Cells were pelleted and washed, and analyzed on an Accuri C6 flow cytometer (BD Biosciences, San Jose, Calif.).
Cell lines were labeled as above with biotinylated tGp2-EGFR-His6. Except, Alexa Fluor 488-conjugated streptavidin was used as the secondary label.
Additionally, ligand specificity was examined through target blocking. […] Cells were pelleted, washed, and labeled with Alexa Fluor 488-conjugated streptavidin for 15 minutes. After washing, flow cytometry was used to compare fluorescence of blocked and unblocked samples.

A further data set deals with soluble EGFR ectodomain (Homo sapiens, UniProt P00533). As to the kind of experiment: Yeast-displayed Gp2 binding to soluble EGFR ectodomain. The conditions noted are these: 1 nM soluble EGFR ectodomain. On the procedure: The plasmid containing the clone of interest was transformed into yeast using the Frozen EZ Transformation Kit II (Zymo Research Corp., Irvine, Calif.), plated on SD medium plates and then grown directly in SG medium at 30° C. for at least 12 hours to induce protein expression. Cells were pelleted and washed with PBSA (phosphate buffered saline with 0.1% bovine serum albumin) and resuspended in PBSA containing biotin conjugated target over a range of concentrations. […] The samples were incubated at 22° C. for an appropriate amount of time to reach 90% of the approach to equilibrium. After incubation, cells were washed and labeled with mouse anti-c-myc antibody (clone 9E10) for 10-15 minutes, washed, and labeled with fluorescein-conjugated goat anti-mouse antibody and Alexa Fluor 647-conjugated streptavidin for 10-15 minutes. Yeast were washed and Alexa Fluor 647 fluorescence was analyzed on a FACSCalibur flow cytometer (BD Biosciences, San Jose, Calif.). The relative fraction bound for cells displaying tGp2 was determined by subtracting background fluorescence of an unlabeled control and normalizing to the maximum saturated signal at high concentrations. The equilibrium dissociation constant, KD, was identified as the concentration where half-maximal binding occurred.

Another data set has as its target rabbit IgG. Nature of the data set: Equilibrium competition titration of soluble tGp2, rabbit IgG. The class given is binding. Conditions: soluble protein, read-out: Affinity (KD) of soluble tGp2. On the procedure: Soluble affinity of select tGp2 proteins was determined using equilibrium competition titration, as described previously (Lipovsek et al., J Mol Biol, 2007, 368:1024-1041). Briefly, the soluble tGp2 clone was allowed sufficient time to reach 90% equilibrium with biotin-conjugated target over a range of tGp2 concentrations. Yeast cells displaying the same tGp2 clone and yeast cells harboring no plasmid (to aid in pelleting) were added to the solution, and allowed to equilibrate for six days. Cells were washed, labeled for target binding and analyzed with flow cytometry, as above.

On to “GaE 2.3.3: EGFR-specific tGp2 scaffold; loop 1 SRGDSYW (SEQ ID NO:2), loop 2 PMYHIYY (SEQ ID NO:3), frame mutation W45R (KFWATVSRGDSYWFEVPVYAETLDEALELAERQYPMYHIYYVTRVRP)”, for which the “Melting temperature (Tm) by circular dichroism” value (“Melting temperature (Tm)” below) in data set [1] stood at 81 °C. The “Binding to human cancer cell lines” value in the data set with EGFR (0 or 1 μM Gp2 anti-EGFR, flow cytometry) was “binds to human cancer cell lines in an EGFR-dependent manner”. Moreover, the “Blocking of labeled Gp2 binding by unlabeled Gp2” value with EGFR (A431 cells, 1 μM unlabeled Gp2) is “blocks binding of labeled Gp2 to A431 cells”. Also, the pKd in the data set with EGFR (A431 cells, His tag, anti-His6-FITC, flow cytometry, read-out: Affinity for A431 cells (average of two experiments)) is 7.30. Further, the “Binding of soluble EGFR ectodomain by displaying yeast” value with soluble EGFR ectodomain is given as “effectively bind”.

In the case of “tGp2 wild type: Truncated gene protein 2 of T7 phage, 5.2 kDa, 45 amino acids, SEQ ID NO:1 (KFWATVESSEHSFEVPVYAETLDEALELAEWQYYPAGFEVTRVRP; Enterobacteria phage T7)”, the “Melting temperature (Tm)” value in data set [1] stood at 67 °C.

For the substance “GaR 3.2.3: Rabbit IgG-binding tGp2 clone; loop 1 HSVHGY (SEQ ID NO:44), loop 2 GNALGY (SEQ ID NO:45), E44F, W45G (KFWATVHSVHGYFEVPVYAETLDEALELAFGQYGNALGYVTRVRP)”, the “Melting temperature (Tm)” value in data set [1] was determined as 80 °C. For the same substance, on rabbit IgG, the pKd was 9.00.
